In article PMC11920050 (Nature Communications, 2025):

Target: the molecule itself
Assay: Western blot of cell lysate under non-denatured or denatured conditions

B1: Flag-EGFP-tagged SPESP1 (equatorial segment protein 1) expressed in CHO-K1 cells (natural protein, mouse, UniProt Q9D5A0 19-399, looked up)
chain: YPTITVLPDEEQNLNHYVHILQNLIMSVPTKEQDLGKKLSSSRTVDSAEPRSLASKVLLTPGLVSAQDVTPESDVLIRPVDETTNSRTRGFTLRRRRTQSTAFWSIRPNNISVVLRTEEPFIEKEPEPELESSRLPTEPEPELEPEPEPVAESRQMSEPEEELVTSTTPNKELTGTSRISSMATQPANTQATRITVTVKTTSTMDVSTDSEDVPQLSGQSEIPSAEDLPGRHSLNTRHEDILKKISNINAEIQQGLLGGNNSPEFKEFIKASREHLKRSLALAAAAEHKLEQMYGSNVFPEGRTSDPDNDMEMIINMLYNSRSKLSDYFNIKRVPSELREKASVVNAELRKILCVDQVEMQSLIKKLLSNNMKILNILNVP
modifications: O-GalNAc glycans (VVA-positive on blot); sites on this construct not stated
stoichiometry N: 2
